For data set [1], the target named is T1, NF-ATp XS (464-aa recombinant fragment of murine NF-ATp) (Mus musculus, UniProt Q60591 SEQ:226-689).
T1 chain: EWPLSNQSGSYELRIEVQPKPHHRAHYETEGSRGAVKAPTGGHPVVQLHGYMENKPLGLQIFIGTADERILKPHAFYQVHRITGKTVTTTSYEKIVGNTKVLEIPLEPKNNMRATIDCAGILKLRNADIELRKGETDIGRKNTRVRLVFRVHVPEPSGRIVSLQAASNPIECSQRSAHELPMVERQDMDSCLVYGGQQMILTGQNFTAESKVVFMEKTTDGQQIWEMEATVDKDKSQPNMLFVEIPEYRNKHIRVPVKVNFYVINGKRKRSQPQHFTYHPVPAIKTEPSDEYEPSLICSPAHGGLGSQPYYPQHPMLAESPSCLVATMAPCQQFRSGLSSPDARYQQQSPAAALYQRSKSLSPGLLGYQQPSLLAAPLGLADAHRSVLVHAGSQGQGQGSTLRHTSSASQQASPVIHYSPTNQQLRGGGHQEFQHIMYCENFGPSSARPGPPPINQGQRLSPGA
In words: competition; 200-fold excess competes as strongly as wild type. On the procedure: (§1) EMSAs were performed using 18 μl of renatured proteins in a 30 μl mix containing 4 mM Hepes, pH 7.4, 84 mM NaCl, 20 mM KCl, 0.08 mM EDTA, 9% glycerol, 0.7 mg/ml BSA, 17 μg/ml poly(dI:dC) and 0.125 ng of ^32P-labelled oligonucleotide. For competition assays, a 200-fold excess of unlabeled oligonucleotide was added to the reaction. The reactions were incubated for 15 minutes at room temperature followed by electrophoresis at 4° C. on 4% Tris/borate/EDTA/acrylamide gels. The NF-AT oligonucleotide used had the sequence GCCCAAAGAG-GAAAATTTGTTTCATACAG (SEQ ID NO:1), corresponding to the distal NF-AT site from the murine IL-2 promoter (nucleotides −295 to −267 relative to the transcription start site, (Serfling, E., Barthelmas, R., Pfeuffer, I., Schenk, B., Zarius, S., Swoboda, R., Mercurio, F., and Karin, M. (1989) *EMBO J.* 8, 465–473)). Oligonucleotides bearing mutations in the NF-AT site were as follows: M1, […] (SEQ ID NO:2); M2, […] […]
(§2) Figure 12: FIG. 12 is a photograph of an EMSA gel. Binding of a recombinant fragment of NF-AT_p (NF-AT_pXS) to target DNA and association of the recombinant NF-AT_p fragment with Fos and Jun proteins was evaluated. The binding of the recombinant fragment of murine NF-AT_p to the distal NF-AT site of the murine IL-2 promoter was assessed by EMSA in the presence or absence of a 200-fold excess of unlabelled competitor oligonucleotides as shown in Lane 1–5. […]

For data set [2], the target named is T1, NF-ATp XS (464-aa recombinant fragment …). In words: competition; 200-fold excess does not compete. On the procedure:
as §1, §2

For data set [3], the target named is c-Fos + c-Jun (UniProt P12841;P17325 P12841:1-380,P17325:1-334). In words: EMSA; no NF-ATp present. The settings on record: tags: full-length; label: 32P. On the procedure:
(§3) Figure 12: FIG. 12 is a photograph of an EMSA gel. Binding of a recombinant fragment of NF-AT_p (NF-AT_pXS) to target DNA and association of the recombinant NF-AT_p fragment with Fos and Jun proteins was evaluated. The binding of the recombinant fragment of murine NF-AT_p to the distal NF-AT site of the murine IL-2 promoter was assessed by EMSA in the presence or absence of a 200-fold excess of unlabelled competitor oligonucleotides as shown in Lane 1–5. The arrows indicate two DNA-protein complexes formed with NF-AT_pXS. Full-length recombinant c-Fos and c-Jun proteins were included in the same binding reactions, as shown in Lanes 7–9. The open arrows indicate Jun—Jun-NF-AT_pXS complexes, while the closed arrows indicate Fos-Jun-NF-AT_pXS complexes.
(A gel shift assay detects complexes by their altered migration in electrophoresis.)

Data set [4] deals with NF-ATp XS + c-Jun (UniProt Q60591;P17325 Q60591:400-863,P17325:1-334). In words: EMSA; slower-migrating Jun-Jun-NF-ATp complex. The conditions noted are these: tags: His6 on NF-ATp XS; full-length c-Jun; label: 32P. On the procedure:
as §3

Data set [5] has as its target NF-ATp XS + c-Fos + c-Jun (UniProt Q60591;P12841;P17325 Q60591:400-863,P12841:1-380,P17325:1-334). As to the kind of experiment: EMSA; Fos-Jun-NF-ATp complex; competed by AP-1 oligonucleotide; c-Fos alone does not associate. The conditions noted are these: tags: His6 on NF-ATp XS; full-length c-Fos and c-Jun; label: 32P. The procedure: as §3
Data set [6] addresses T1, NF-ATp XS (464-aa recombinant fragment …). As to the kind of experiment: EMSA; two complexes; self-competed by 200-fold excess; methylation interference shows GGAA core required. The conditions noted are these: label: 32P. The procedure:
as §1, §2

Data set [7] has as its target T2, NF-ATp (purified from Cl.7W2 T cells) (Mus musculus, UniProt Q60591 SEQ:1-890).
T2 chain: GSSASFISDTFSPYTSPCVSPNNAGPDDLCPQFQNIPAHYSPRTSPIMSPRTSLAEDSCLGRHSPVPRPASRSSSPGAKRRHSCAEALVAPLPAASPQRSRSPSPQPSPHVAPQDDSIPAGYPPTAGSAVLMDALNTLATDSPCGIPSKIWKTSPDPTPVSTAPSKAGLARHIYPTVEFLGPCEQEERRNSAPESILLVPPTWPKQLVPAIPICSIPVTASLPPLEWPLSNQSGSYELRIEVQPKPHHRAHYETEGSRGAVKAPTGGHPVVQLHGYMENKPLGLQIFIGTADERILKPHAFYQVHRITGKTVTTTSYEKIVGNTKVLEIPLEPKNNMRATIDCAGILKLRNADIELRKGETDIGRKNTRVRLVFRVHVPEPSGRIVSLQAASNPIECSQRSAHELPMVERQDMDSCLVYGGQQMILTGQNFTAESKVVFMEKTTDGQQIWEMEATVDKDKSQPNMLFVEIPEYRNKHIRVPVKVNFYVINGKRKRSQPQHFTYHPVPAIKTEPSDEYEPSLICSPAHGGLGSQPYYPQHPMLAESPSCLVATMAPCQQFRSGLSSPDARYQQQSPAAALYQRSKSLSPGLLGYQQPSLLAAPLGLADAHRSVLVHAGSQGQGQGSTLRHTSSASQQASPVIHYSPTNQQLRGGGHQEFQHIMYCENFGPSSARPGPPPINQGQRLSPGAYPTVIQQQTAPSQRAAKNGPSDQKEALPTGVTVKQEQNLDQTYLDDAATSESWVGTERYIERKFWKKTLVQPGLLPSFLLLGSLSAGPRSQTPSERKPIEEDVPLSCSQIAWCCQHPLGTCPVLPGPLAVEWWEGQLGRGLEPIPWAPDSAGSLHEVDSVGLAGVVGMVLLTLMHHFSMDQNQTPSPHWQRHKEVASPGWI
As to the kind of experiment: EMSA; purified 120 kDa protein, renatured from gel. The settings on record: tags: native; label: 32P. The procedure:
EMSAs were performed using 18 μl of renatured proteins in a 30 μl mix containing 4 mM Hepes, pH 7.4, 84 mM NaCl, 20 mM KCl, 0.08 mM EDTA, 9% glycerol, 0.7 mg/ml BSA, 17 μg/ml poly(dI:dC) and 0.125 ng of ^32P-labelled oligonucleotide. For competition assays, a 200-fold excess of unlabeled oligonucleotide was added to the reaction. The reactions were incubated for 15 minutes at room temperature followed by electrophoresis at 4° C. on 4% Tris/borate/EDTA/acrylamide gels. The NF-AT oligonucleotide used had the sequence GCCCAAAGAG-GAAAATTTGTTTCATACAG (SEQ ID NO:1), corresponding to the distal NF-AT site from the murine IL-2 promoter (nucleotides −295 to −267 relative to the transcription start site, (Serfling, E., Barthelmas, R., Pfeuffer, I., Schenk, B., Zarius, S., Swoboda, R., Mercurio, F., and Karin, M. (1989) *EMBO J.* 8, 465–473)). Oligonucleotides bearing mutations in the NF-AT site were as follows: M1, […] (SEQ ID NO:2); M2, […] (SEQ ID NO:3); M3, […] […]
Figure 8: FIG. 8 is a photograph of an EMSA gel showing an analysis of NF-AT_p by renaturation of NF-AT_p activity following purification of the protein using SDS-polyacrylamide gel electrophoresis. […] After electrophoresis, the gel was sliced, proteins were eluted from gel slices and renatured, and the fractionated proteins were evaluated in an EMSA for their ability to bind to the NF-AT site of the murine IL-2 promoter.

Data set [8] deals with NF-ATp (T cell) + c-Fos + c-Jun (UniProt Q60591;P12841;P17325 Q60591:1-927,P12841:1-380,P17325:1-334). As to the kind of experiment: EMSA; upper complex with partially purified NF-ATp; not seen with c-Fos only. The conditions noted are these: tags: native NF-ATp with recombinant c-Fos and c-Jun; label: 32P. On the procedure:
Figure 7: FIG. 7 is a photograph of an EMSA gel showing the results of an EMSA. […] Partially purified NF-AT_p was incubated with labeled oligonucleotide corresponding to the distal NF-AT site of the murine IL-2 promoter, either alone (lanes 1, 7, 13), with full length or truncated (T) recombinantly produced c-Fos and c-Jun proteins (lanes 2–5 and 8–11, respectively) or with an equivalent concentration of bovine serum albumin. Lane 5 contained 50% more c-Fos and c-Jun compared to lane 4. Lanes 11–13 contain half the amount of NF-AT_p compared to lanes 1–10. […] Bound complexes were separated from free probe by EMSA. The position of free probe, of the lower (NF-AT_p) complex and upper (NF-AT_p-Fos-Jun) complex are indicated.

From patent US5656452A, “NF-ATp, ' a T lymphocyte DNA-binding protein” (President and Fellows of Harvard College, priority 1993, dated 1997) come the findings set out here.

Chain of NF-ATp XS + c-Jun (P17325 whole entry, one chain of several): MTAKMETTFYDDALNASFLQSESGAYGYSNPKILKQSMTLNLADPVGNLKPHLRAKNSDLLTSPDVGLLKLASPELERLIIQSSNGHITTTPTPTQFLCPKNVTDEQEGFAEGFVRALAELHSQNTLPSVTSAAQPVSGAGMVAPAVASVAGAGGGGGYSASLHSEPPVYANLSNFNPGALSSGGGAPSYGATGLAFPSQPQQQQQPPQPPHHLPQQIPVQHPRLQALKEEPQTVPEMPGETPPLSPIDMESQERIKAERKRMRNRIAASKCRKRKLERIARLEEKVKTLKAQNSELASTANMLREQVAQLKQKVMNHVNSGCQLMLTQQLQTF
Chain of c-Fos + c-Jun (P12841 whole entry, chain 1 of 2, the tested form may be a part): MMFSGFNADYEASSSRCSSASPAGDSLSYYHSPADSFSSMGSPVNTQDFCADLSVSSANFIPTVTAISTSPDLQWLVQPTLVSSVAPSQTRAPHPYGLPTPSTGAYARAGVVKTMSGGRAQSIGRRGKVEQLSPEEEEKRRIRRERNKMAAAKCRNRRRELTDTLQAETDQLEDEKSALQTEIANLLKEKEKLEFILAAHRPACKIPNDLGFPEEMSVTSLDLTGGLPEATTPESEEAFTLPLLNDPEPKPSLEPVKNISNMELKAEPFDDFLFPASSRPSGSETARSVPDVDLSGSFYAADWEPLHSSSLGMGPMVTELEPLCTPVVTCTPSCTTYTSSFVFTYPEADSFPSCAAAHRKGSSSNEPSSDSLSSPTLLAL
Chain of c-Fos + c-Jun (P17325 whole entry, chain 2 of 2, the tested form may be a part): as the sequence (P17325 whole entry, one chain of several) above
Chain of NF-ATp XS + c-Fos + c-Jun (P12841 whole entry, chain 2 of 2, the tested form may be a part): as the sequence (P12841 whole entry, chain 1 of 2, the tested form may be a part) above
Chain of NF-ATp XS + c-Fos + c-Jun (P17325 whole entry, chain 3 of 2, the tested form may be a part): as the sequence (P17325 whole entry, one chain of several) above
Chain of NF-ATp (T cell) + c-Fos + c-Jun (Q60591 whole entry, chain 1 of 3, the tested form may be a part): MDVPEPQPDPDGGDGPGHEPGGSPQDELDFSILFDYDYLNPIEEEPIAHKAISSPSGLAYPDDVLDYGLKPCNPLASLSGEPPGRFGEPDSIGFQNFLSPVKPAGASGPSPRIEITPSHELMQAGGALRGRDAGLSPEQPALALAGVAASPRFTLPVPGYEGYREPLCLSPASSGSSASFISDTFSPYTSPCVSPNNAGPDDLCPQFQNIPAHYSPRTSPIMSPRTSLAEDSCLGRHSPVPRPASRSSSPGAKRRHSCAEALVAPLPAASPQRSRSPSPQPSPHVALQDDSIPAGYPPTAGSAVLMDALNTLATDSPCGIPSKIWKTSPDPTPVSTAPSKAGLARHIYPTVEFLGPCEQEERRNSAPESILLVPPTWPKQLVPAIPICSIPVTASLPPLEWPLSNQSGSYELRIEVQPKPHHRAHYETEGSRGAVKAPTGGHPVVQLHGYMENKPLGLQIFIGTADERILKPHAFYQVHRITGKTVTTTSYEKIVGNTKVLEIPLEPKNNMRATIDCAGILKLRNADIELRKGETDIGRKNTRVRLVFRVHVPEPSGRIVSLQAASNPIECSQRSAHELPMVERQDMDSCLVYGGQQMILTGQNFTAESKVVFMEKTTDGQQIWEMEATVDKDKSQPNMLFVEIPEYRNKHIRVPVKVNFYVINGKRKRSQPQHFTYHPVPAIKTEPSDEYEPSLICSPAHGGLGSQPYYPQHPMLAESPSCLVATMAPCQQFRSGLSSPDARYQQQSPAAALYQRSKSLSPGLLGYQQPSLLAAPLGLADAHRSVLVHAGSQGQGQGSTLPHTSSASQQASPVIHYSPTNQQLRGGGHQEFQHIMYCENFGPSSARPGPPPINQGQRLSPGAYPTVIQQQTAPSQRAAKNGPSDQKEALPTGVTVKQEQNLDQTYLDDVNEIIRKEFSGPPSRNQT
Chain of NF-ATp (T cell) + c-Fos + c-Jun (P12841 whole entry, chain 2 of 3, the tested form may be a part): as the sequence (P12841 whole entry, chain 1 of 2, the tested form may be a part) above
Chain of NF-ATp (T cell) + c-Fos + c-Jun (P17325 whole entry, chain 3 of 3, the tested form may be a part): as the sequence (P17325 whole entry, one chain of several) above

B1: M1 (dsDNA)
DNA 1: GCCCAAAGAGGAAAATTTGTTTATATCAG
DNA 2: CTGATATAAACAAATTTTCCTCTTTGGGC
Regarding B1, in data set [1], the binding result is given as “binds”.

B2: M3 (dsDNA)
DNA 1: GCCCAAAGACCTTAATTTGTTTCATACAG
DNA 2: CTGTATGAAACAAATTAAGGTCTTTGGGC
On to B2, for which, in data set [2], the binding result is recorded as “no binding”.

B3: NF-AT oligonucleotide (distal NF-AT site, murine IL-2 promoter) (dsDNA)
DNA 1: GCCCAAAGAGGAAAATTTGTTTCATACAG
DNA 2: CTGTATGAAACAAATTTTCCTCTTTGGGC
As to B3, the binding result in data set [3] is given as “no binding”; in data set [4] it was “binds”; in data set [5], “binds”; in data set [6], “binds”; in data set [7], “binds”; in data set [8], “binds”.
